Assay: label from the status in PepcDB records

Sequence | protein production
MKPRDINKLIASKIFGYEIKDDNIIKDGRYRLGIPLYSQNIESAWQVVEKLEYDVKVTKTDLKPKYQVHVFVPGGVKMVFAETAPMAICKGALASVDIELQD | not failed
MKPRIYVKVKPERLGAVIGPRGEVKAEIMRRTGTVITVDTENSMVIVEPEAEGIPPVNLMKAAEVVKAISLGFPPEKAFRLLEEDQILVVVDLKQVVGDSQNHLKRIKGRIIGEGGRARRTIEEMTDTYINVGEYEVAIIGDYERAMAAKQAIEMLAEGRMHSTVYRHLERIMREIKRRERLKMWAREEL | not failed
MKPRVEILMSTYNGEKFLAEQLDSILAQTHQYFVLTVRDDGSKDGTPDILSRYAATDERITYCVQENRGVVGSFYWLLKNSSPLSNYVAFSDQDDVWLPNKLERALDVLSRYDETLPLLYCSRVEYVSAGLGHLDDSPMMVRPVCLNNALIQNVATGCTVVMNKAARDLLLEREWPPQVLMHDWWSYIVVSAFGKVVYDDFVSIKYRQHGGNVIGGTVSFVSDYRSRIINFLSRRRKGVFGCYDQAYSFWLGYKDELKGESRGIVSQFIESKRSFLSRLNYLTSSQRVYRHRFIDDVLVRLLILSNKYLEHHHHHH | failed
MKPSHQQQKQASAAKDEKKDIIPLSAEKADGAEGWLNNSTILYTASNPTKTELFPYRIFTGKAKKLYQTDGQIVDVQINAREQMILLQITHSQKTAVVLLNAEGETLYEKDYETYELEAAWNQYDPYQMMVTEFNENWDFHTYQVNAKKDESFLSPVQVPFIHWTSKNTFDYVKEGRDDKTGPLYTFDTASKTEQKLEDNVLFFDSFHQMSFTVKSASGGKGTYQFKTPQSTSPVTAKWPLQAKYTSLAPMEYDYDEAGSLFYTFKQSGDAYKLAAINVASGETKDLVSLREMEPIQISPNGKYALYGFHFEQIILLKSHETKQLIIDQKEMELEHHHHHH | failed
MKPSKYSVKAQGHGSSYMPMEVTLSKDKIEDINVDASGETRGVADEVFNRLPKLIVDNQTLNIDAVSGATISSHGVIDGVAQTINEAGGNSEEWKRRAKPRKVLLKKTKNMILMLEHHHHHH | not failed
MKQARRHCWRRGIAATLIGGVISRRGTRASIGRDGLQLRFAALPWRTRCVAAAFCRFVKRSTRTPRARQESAVGLATLDIVIVLVYLTGIFVLAQWVSREKAGHSKSAEDYFLASKSLPWWAIGASLIAANISAEQIIGMAGSGYAIGLAIASYEWMAALTLLIVGKFFLPIFLRNGIYTMPQFLEQRYGKWIRTLMAVFWLLLYVFVNLTSILWLGSIAVSQVTGMDQTLALALIGVFALVYQLYGGLKAVALTDIVQVTLLVLGGLLVAALTLARIGDGAGVLEGFQHLWNAHPEHFHMILTKDNPFYKDLPGLSVLLGGLWVMNISYWGFNQYIIQRALAAKNIGEAQKGMVFAAFLKLLMPLVIVVPGIAAVVLAPDLAKPDQAYPTMMQLLPTGMLGLVFAALVAAIVASLASKINSVATIFTLDFYAKFRPQTEQKQLVRVGRIVAAVSVLIGILTARPLLGNFDQGFQFIQEFTGFFTPGVVVIFMLGLFWKRANEAGALTAAIGSVVLSFVLKFAWPELPFMDRIGVVFVAALMLAVLVSLLTPATQARDLIRTNEVAYGTTLSFKIGAAGVIAILIVLYTVFW | failed
MKQHILVLEDANQRRTIILDEQQYSIGRHSGTSIQIHSRQASRHHATLMRKTNSKTNEECFWIIDGDLEGNKSQNGVFVNGEKRLIHELKNGDLINFGCSINALEHHHHHH | failed
MKQKLLVTLLGLSALGASPVFAANTNVDLAEDAYIYGYSIDEAYKFFYHTAVENNYPLNEFQNRRALADDSYTAHPTINNDTLHLMGWLDVAAEPVIVSVPDMDEGRYWILHTMDMGHYTNAAFSSRTRGTKGGQFMFAAQDWQGEVPASVDEVVRVDSNLVKLMGRIMAVNDEDAKVALNYMDQWNIRTLSEYLGKNGPKPVQRTYPDPKKSTWLERVNFVLCDGSMGNADKQWLDKYQSIGVEPCKTDFTPEQLKLAKVGEKKGMEHLVELAPKMTDARTLLGTRDTLGDAPRDIFAEGTYLGQWGLPPIEASYRKSDFDSIGQKLDGSKHDYVMRFKAPNVSEFWSVTIYGNDNRLMAKNDLNRHSRGDRTMKADKDGYYTIYMSANEKGRADDPNFLPVPEKPFYAIMRFYGADDAIQSGEYQMPEIKVVKLEHHHHHH | not failed
MKQKLLYLCLFVTLAVVGHSYIIYRFIHDGVLFTGPNDGMEQMVPIQMYLFDNWHHGNFFYASDFGLGGDFFSDLSYYFSTNIIFIINVIVIVLLKTFITLDTTHIMFWMTNALIVSIFKSAIAMLATYLYVRYIALNKKIAVLAAFIFVISPIYFRFTVYWPFFSDVFIWLPLLLWSIERFLKSGKIGFFIIIVAITLINNFYFAYYQLLTGLIYLTIRLVFRHQADIIPRFKSFMSLFIASVIGLGCSLPFFFPAIQSFFNNRRTPFDGNVDLFEPFNQNTNVFYDNYLIVILFITGQALLSFKLYKHYYFKLFAISTLILICASFVPFIDQIFNGFSAPQKRWHYLIAFNSAVLIGLYVKYFRTISIPNYIFSSVISLSIIGLSAWYYDDVVAWVWFAPIVSLIGFLILLINESHIKLKLTHLFVLSIMILTVLVSTVFIRNQIYFEDHVKRANAYFVNASLFNTPLQQQLVKDMNTHKLEDERIDWRVNEQDNTPMYQQFKGLSIYSSIFDHHILDFYYDELKINMQEESVSRYQSTNGRQNMSSLFSIKYLMVKRYQHNIPAYFKKIKNDGQYEIYENTLNLPSVRVSNKKYNSNDLHNPIDKEHAMMDGVILNNKGASYTAKAPNLLNQTRITYKDIDNKRNHQIHASKNDSHVQIHIPKHLRQRYHDFYLTIKVKRGLPDSNFSVQINNYTNNRLYNNSTYRTGVDTQLYRTQPDKNGNINVGLSPTGNYYLDIQSLHGENYNHLKSAYAKQNNDGHYTDIKNGVKVKLGPHEKGIATINIPYREGMTAYVDNKKIKPLNVNYMMTGVPVSKDSKEIIIKYRPKYWYTVTAISIIFIIGSLSWFMRKRYKNK | failed
MKQLSFNKLYFEGIKDAIPISIGYLPIGMAFGVLAKSMGIPYEISILMSLIIFAGASQFVGVNLIAIGTSSFEIVLTTFILNLRHFLMSSSLSQRIDYTKSKKFLSLISFGVTDETFAVASLKEELKLSPEFLFGLNFTAFFAWNFGTVLGIFLAESIPKEIQSSMGISLYVMFIGLLIPAVRRSTKVLKIFLVAVFISSALTWVPVFKFISTGWIIIITTIVASFIGAKFIHGDGDE | failed
MKQNQYLFLLFTLIVLTGCGGTQKKLTEYVNPFLGTATLWEPEDLGYTRKIKSRTWGAETYPGATLPNAMVQLSPVTQFRSGAGYQYEDTVIYGFSHTAKGHWNLLHVPMLPVVGTIAPGNYCSGFSHEKESAHPGYYQVYLERYKVNAELTSTLRCAYHKYTFAKGDDKSLLVDIRRSNNDVRDWKIEKVDDNTFTGYQDGDGKIYFYAKTNYKIGQVEMVKDDKHEVAVLRFIDSKGVEPLEVKAGFSFVSIENAQMNLKAEMLNKSFAQVAEEADAAWEALLSKIQVAGGTEREKRLFYSTFFHAFKWPALRSDVNHEYTDVRGEVVNNGFHYYTDPSFWDDYRNKLVLIGMISPDVTTDIIRSIIDKGEKRDGYMPTFFHGDHASTFISGSWLRGLHDFDLERAYKLILKNATVPGKGGRRYLDEYMERGWIAEKDTVNVPTWDEYKGAVTKTQEYAYDDYAVALVAKELGDEANYKLMMERSNNYKTLFDPSTGFWRGKIDDGSWIQDFDPYYPYYQYMYREANAWNALFFAPHDPEGMIKLYPSKEAVEAKLDSLFSEPWRGYEAHNLTGFIGNYCHGNQPGHSIPYTYYFIDKQEKAQCILDSLMNHYYDMGADKLAYAGMDDAGEMSSWYVLNAIGLYTYSPADPEYIVTVPLFDKVTFNLNGRPFTIVKKGSGKKIIDITYDGKKIDGYFITHDQLREGKELVITTE | failed
MKQPLRVLISCRPEENSGGKRSEQNDAVFEFAAWLARTSDINVRGITTFIRPWPSSSISKLGGKYHKWYKNLDSYYRSRTIKGLKEAGVEKSQWDDDVSVFVDGPSESTLLTHAAEEFEADLILLGSDATAPKGRFLASSTADALLHSSPVPLGLVPRGVKLSKKGVTRVNYAFTNESDDFEQGLRSSAELATNWNVPLRILAFSPTGITSAPTSRSLDISTELSSEWRELTLAMLDRARDGVLTDHPNLSVSSETGSGWGWSGAIDALRWKKGDLLCMGSHRTDTLSRVFVGSETMEIIRNSPVPTIIYPGL | failed
MKQPTLAVIMTCHNRRNTTLACLQALYQQKNHFDVYLTDDGSTDGTAEFIKAEYPDVKIFQGDGNLFWVGGMHLAFGEAIKNQYDYYLWLNDDTFLEADALEKLLQVHENLAVEGYGQSIVVGSTQDPITKQATYGGAVKSKKWYSNKFEFLEPTSDVQKCDAMYGNCVLIPHSVTLKVGNIDTAFIHSLGDLDYALRARNLGCHVWVAPGYIGTCNKNSVRNSWVDTKLPVLERLRKILQIKGFPLKPWTTFCSRHSGPFWIFYWFLPYIRAIIGYKNLATSPTFSEDPKETKPEV | failed
MKREEYLKNYLESYLRKKEVSLTEEEFNVILREFLRFAYNPEESGQEIADTADGSKTLIHKTYGEPYHSQTAGAIRESLYKFVRPSRILEKAKERKVIRILDVGFGLGYNLAVALKHLWEVNPKLRVEIISFEKELLKEFPILPEPYREIHEFLLERVPEYEGERLSLKVLLGDARKRIKEVENFKADAVFHDAFSPYKNPELWTLDFLSLIKERIDEKGYWVSYSSSLSVRKSLLTLGFKVGSSREIGRKRKGTVASLKAPVPPMEENEVRKLVLSPFAVPMRDEKLDKEPLEILIDYLLKVYKISR | not failed
MKRFAFRVILHILLIVLFSIGSYLLFQKQLWFSTTICLILLITIGIHLYRMQFKQIALLRRLTDGLRYNDMMQTFHPPFNNKIMNEWAEELSDTLKDFRGRLLAEEIKHQYYENLLNKVDTAVLVADKAGHIEWMNQAAVTHLGQISQLPETLLKASVAHDTPVIRIEQNSTVLEMAISRTTFATQGREQQLISLKNIHSVLERNEMEAWQKLIRVLTHEIMNSITPIISLSETLSERGIPSQLGEKEYSVMLQAMQTIHRRSKGLLEFVENYRRLTRIPAPIRTQISIAELFTDLKKLFPEEEFQFEVPSPELKLNVDRTQIEQILINLLKNAREACSRKSDKKIQVKARKLSAGNTTLTISDNGEGILPDVLDKIFVPFFTTKTSGSGIGLSLCKQIMTLHEGSINVKSEVGKGSSFILTFPK | failed
MKRFVLLDTTAIPENGGALCLFEYGEDFVIKIQGGDGGQLMNTRMHGSEDALAQIPCSKVAGRPNSRVLIGGLGMGFTLAAALKHLGKSAKVVVAELVPGVVEWNRGPLGEKSGRPLLDPRTVIRLEDVAKVLQAEPQGFDAIMLDVDNGPEGLTQKANSWLYSSAGLAACARALRPKGILAVWSASADRQFSERLRKAGFKAEEVQVFAHGNRGTRHTIWIAEKLKA | failed
MKRIAFVGSVGAGKTTLFNALQGNYTLARKTLAVEFNDKGDIDTPGEYFSHPRWYHALITTLQDVDMLIYVHGANDPESRLPAGLLDIGVSKRQIAVISKTDMPDADVAATRKLLLETGFEEPIFELNSHDPQSVQQLVDYLASLTKQEEAGEKTHHSELEHHHHHH | not failed
MKRIKTRAITLLALCIALNIVGSNIALMLKLPIYLDSIGTVLAAAVFGPLGGMLAGGATGVIVGATTDLYSLFFMPVQLLTGLVAGLLYRRIKPGTWRSNWWLAGVISLPGTLLSTAITVILFHGITSSGSSMLVQLLLGTGMGKTMAVFLIQVGTDYLDRFITVYVVALVYRALRYKLPQAN | failed
MKRKGVGFSLPVTVVMLVIGFIYFASVFTFIDRWFSLTSSPGIANAAAFTALALMCIYNYSIAVFRDPGRVPLNYMPDVEDPESPVHEIKRKGGDLRYCQKCSHFKPPRAHHCRVCKRCVLRMDHHCIWINNCVGHTNYKVFFVFVVYAVTACVYSLVLLVGSLTVEPQDEEEEMGSYLRTIYVISAFLLIPLSIALGVLLGWHIYLILQNKTTIEVYHEGVRAMWLAEKGGQVYKHPYDIGAYENLTLILGPNILSWLCPTSRHIGSGVRFRTAFDSIPDSSETKH | failed
